Patent US20060183119A1, “Method for determining predisposition to a physiological reaction in a patient” (UNIVERSITE LAVAL, priority 2002, published 2006)
Changes are numbered by the printed parent chain. Names may count otherwise. Each block holds one molecule with its values, some of them ahead of it.

Columns and labels:
[1] = molecular target: T1, human UGT1A9*2 (Homo sapiens, UniProt O60656, C3Y); assay: Glucuronidation by microsomes of HEK-293 cells stably expressing UGT1A9*2; conditions: 5 μM and 200 μM of flavopiridol
T1 sequence (O60656 26-530): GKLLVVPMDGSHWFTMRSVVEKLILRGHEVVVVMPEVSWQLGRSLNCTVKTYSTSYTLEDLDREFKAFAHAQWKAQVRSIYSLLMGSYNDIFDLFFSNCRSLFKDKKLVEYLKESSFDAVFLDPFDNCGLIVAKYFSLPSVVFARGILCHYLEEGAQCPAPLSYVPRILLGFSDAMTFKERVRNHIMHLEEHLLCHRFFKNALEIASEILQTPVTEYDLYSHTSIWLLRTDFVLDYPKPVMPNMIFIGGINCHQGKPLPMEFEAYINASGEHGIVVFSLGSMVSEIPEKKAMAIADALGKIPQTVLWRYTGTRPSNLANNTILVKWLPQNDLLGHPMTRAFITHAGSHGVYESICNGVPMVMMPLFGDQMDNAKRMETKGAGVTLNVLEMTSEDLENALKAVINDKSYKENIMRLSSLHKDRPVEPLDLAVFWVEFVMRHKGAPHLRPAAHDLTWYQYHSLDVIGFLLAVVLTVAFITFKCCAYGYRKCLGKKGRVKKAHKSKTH
Protocol: (§1) Microsomal fractions from HEK-293 cells stably expressing human UGT1A9*1, UGT1A9*2 and UGT1A9*3 were used in enzymatic assays. Reactions (100 μl volume) contained 50 mM Tris-HCl, pH 7.3, 10 mM MgCl2, 100 μg/mL phosphatidylcholine, 1 mM UDP-glucuronic acid, 40 to 60 μg of membrane protein. […] Human liver microsome were incubated in the same condition for control. Reaction was stopped by the addition of 200 μL MeOH+1% HCl 2N, followed by centrifugation at 14000 rpm for 10 minutes. Supernatant was filtered through a 0.22 μm filter and 100 μL of water was added. For SN-38 and SN-38-glucuronide detection, 10 μL samples were injected on a liquid chromatographic system coupled to a fluorescence detector. Time-course experiments were realized to determine the linearity of the glucuronidation reaction.
(§2) A liquid chromatographic method was developed to quantify SN-38 glucuronidation of UGT cell line-derived microsomes and human liver microsomes. Samples were analyzed using high performance liquid chromatography (Alliance 2695, Waters, Milford, Mass.). […] At a constant flow rate (0.7 ml/min), a linear gradient from 20 to 65% B was run over 3 min, held 0.8 min and a second gradient until 95% of B was run over 2 min and then re-equilibrated to 20% B over 2 min. The effluent from the HPLC system (Alliance 2695) was connected directly to a fluorescence detector (Waters, Milford, Mass.) using an excitation wavelength of […] and an emission of 460 nm. […] Determination of the glucuronidation rates obtained with other substrates was performed as currently known in the art.
(§3) Microsomal fractions from HEK293 (40 to 60 μg) were added to a reaction mixture (100 μL) containing 50 mM Tris-HCl, pH 7.3, 10 mM MgCl2, 100 μg/mL phosphatidylcholine and 2 mM UDP-glucuronic acid. […] Commercially available human liver microsomes (Human Cell Culture Center Inc., Laurel, Md.) were incubated in the same conditions for all experiments. Time-course experiments were performed to determine the linearity of the glucuronidation reaction. For the determination of Vmax and Km. HEK293 cells stably expressing UGT1A9 enzymes were incubated in the presence of various concentrations of SN-38 ranging from 0.1 to 200 μM and incubated for 30 min as described above whereas UGT1A7 membranes preparations were incubated for 3 hours. […] Reactions with SN-38 were stopped by the addition of 200 μL MeOH+1% HCl 2N, followed by centrifugation at 14000×g for 10 minutes. The supernatants were filtered through a 0.22 μm membrane and 100 μL of water was added to the filtrate. For the detection of SN-38 and its glucuronide (SN-38G), 10 μL samples were injected in a liquid chromatographic system (HPLC) coupled to fluorescence detector as described below.
(§4) A HPLC method was developed to quantify the rates of SN-38 glucuronidation from the various microsomal fractions under study. The HPLC system used was an Alliance 2695 (Waters, Milford, Mass.) equipped with a 50×3.2 mm Colombus C18 column (Phenomenex, Torrance, Calif.). […] Then a second gradient ranging from 65% to 95% solvent B was generated during the following 2 min. Finally, the column was re-equilibrated to 20% solvent B for 2 min. The column was connected to a fluorescence detector model 474 (Waters, Milford, Mass.) and the molecules were excited at a wavelength of 370 nm and an emission of 425 nm.

[2] = molecular target: T2, human UGT1A9*3 (Homo sapiens, UniProt O60656, M33T); assay: Glucuronidation by microsomes of HEK-293 cells stably expressing UGT1A9*3
T2 sequence (O60656 26-530 M33T): T1 sequence (O60656 26-530) with M8T
Protocol: as §1, §2, §3, §4

[3] = tested on: COc1c(C)c2c(c(O)c1C/C=C(\C)CCC(=O)O)C(=O)OC2; assay: cells, lysate or membranes named; conditions: other: MPA glucuronidation; pH 7.3; 37.0 °C
[4] = substrate: COc1c(C)c2c(c(O)c1C/C=C(\C)CCC(=O)O)C(=O)OC2; assay: cells, lysate or membranes named; conditions: other: MPA glucuronidation; pH 7.3; 37.0 °C; remark: listed apart in the source

formation of flavopiridol-G compared to the UGT1A9*1 allele [1]: not statistically different
formation of flavopiridol-G compared to the UGT1A9*1 allele ([2]; 5 μM and 200 μM of flavopiridol): not statistically different
Molecule: CN1CC[C@H](c2c(O)cc(O)c3c(=O)cc(-c4ccccc4Cl)oc23)[C@H](O)C1 [Flavopiridol, flavopiridol]

effect of codon 33 variation on affinity of the protein for the substrate (in words) ([2]; versus UGT1A9*1): dramatically reduced
Molecule: COc1c(C)c2c(c(O)c1C/C=C(\C)CCC(=O)O)C(=O)OC2 [MPA, mycophenolic acid]

Molecule: human UGT1A9*2 (Homo sapiens; C3Y)
Km [3]: 303 µM
Vmax [3]: 0.0084 µmol/min/mg

B1: human UGT1A9*1 (Homo sapiens) (protein)
chain: T1 sequence (O60656 26-530)
Km [4]: 495 µM
Vmax [4]: 0.00941 µmol/min/mg

B2: human UGT1A9*3 (Homo sapiens; M33T) (protein)
chain: T1 sequence (O60656 26-530) with M8T
Km [4]: 3225 µM
Vmax [4]: 0.0141 µmol/min/mg
